US11844843 (DYNE THERAPEUTICS, dated 2023)

Key:
[1] = target: T1, recombinant human TfR1 (transferrin receptor protein 1) (human, UniProt P02786 89-760); assay: surface plasmon resonance
T1 construct: Recombinant protein in SPR and ELISA; they were assigned to this molecule; also called hTfR1; huTfR1

[2] = target: T2, recombinant cynomolgus monkey (Macaca fascicularis) TfR1 (cynomolgus monkey (Macaca fascicularis), UniProt Q5RDH6 87-760 (Pongo abelii entry), limits assumed); assay: surface plasmon resonance
T2 construct: Recombinant protein; also called cTfR1; cyTfR1
T2 chain: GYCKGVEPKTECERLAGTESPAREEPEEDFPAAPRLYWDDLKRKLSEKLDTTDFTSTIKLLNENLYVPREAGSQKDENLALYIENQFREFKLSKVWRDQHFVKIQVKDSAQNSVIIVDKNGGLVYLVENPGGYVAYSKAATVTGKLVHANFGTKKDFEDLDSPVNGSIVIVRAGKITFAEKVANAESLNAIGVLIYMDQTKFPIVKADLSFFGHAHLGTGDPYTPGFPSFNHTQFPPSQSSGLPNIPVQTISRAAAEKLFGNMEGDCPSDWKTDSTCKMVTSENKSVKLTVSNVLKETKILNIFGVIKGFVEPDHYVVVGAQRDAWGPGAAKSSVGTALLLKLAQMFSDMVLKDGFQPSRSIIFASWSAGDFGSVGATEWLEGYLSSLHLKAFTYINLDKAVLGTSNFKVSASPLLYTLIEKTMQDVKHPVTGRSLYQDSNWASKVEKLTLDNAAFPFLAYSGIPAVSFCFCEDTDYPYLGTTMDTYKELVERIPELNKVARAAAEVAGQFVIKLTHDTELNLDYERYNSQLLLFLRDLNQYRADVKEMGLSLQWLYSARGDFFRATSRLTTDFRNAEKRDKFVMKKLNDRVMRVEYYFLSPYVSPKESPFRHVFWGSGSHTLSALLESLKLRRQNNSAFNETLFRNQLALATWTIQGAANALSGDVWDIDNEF

[3] = target: T1, recombinant human TfR1 (transferrin …); assay: ELISA, recombinant TfR1 coated, unconjugated Fab (row 'Fab binding affinity ELISA')
[4] = target: T2, recombinant cynomolgus monkey (Macaca …); assay: as above
[5] = target: T1, recombinant human TfR1 (transferrin …); assay: Biacore, d0; TfR1 species not stated
[6] = target: T1, recombinant human TfR1 (transferrin …); assay: ELISA on plate-coated recombinant hTfR1, fluorescent anti-(H+L) IgG-A488 detection, % normalized RFUs
Experimental: To measure binding of humanized anti-TfR antibodies to TfR1, ELISAs were conducted. High binding, black, flat bottom, 96 well plates (Corning #3925) were first coated with 100 μL/well of recombinant huTfR1 at 1 μg/mL in PBS and incubated at 4° C. overnight. Wells were emptied and residual liquid was removed. Blocking was conducted by adding 200 μL of 1% BSA (w/w) in PBS to each well. Blocking was allowed to proceed for 2 hours at room temperature on a shaker at 30) rpm. After blocking, liquid was removed and wells were washed three times with 300 μL of TBST. Anti-TfR1 antibodies were then added in 0.5% BSA/TBST in triplicate in an 8 point serial dilution (dilution range 5 μg/mL-5 ng/mL). A positive control and isotype controls were also included on the ELISA plate. The plate was incubated at room temperature on an orbital shaker for 60 minutes at 300 rpm, and the plate was washed three times with 300 μL of TBST. Anti-(H+L)IgG-A488 (1:500) (Invitrogen #A11013) was diluted in 0.5% BSA in TBST, and 100 μL was added to each well. The plate was then allowed to incubate at room temperature for 60 minutes at 300 rpm on orbital shaker. The liquid was removed and the plate was washed four times with 300 μL of TBST. […] Data was recorded and analyzed for $EC50$. […]

[7] = target: T1, recombinant human TfR1 (transferrin …); assay: Table 14, unconjugated Fab, d0; method not named (values equal ELISA row of Table 13)
[8] = target: T2, recombinant cynomolgus monkey (Macaca …); assay: as above
[9] = target: T1, recombinant human TfR1 (transferrin …); assay: Biacore, d25; TfR1 species not stated
[10] = target: T3, recombinant mouse TfR1 (mouse, UniProt Q62351 89-763); assay: ELISA on plate-coated recombinant mouse TfR1, fluorescent anti-(H+L) IgG secondary
T3 construct: Recombinant protein coated on ELISA plates
Experimental: (§1) Serial dilutions of the Fab were added to plates precoated with recombinant human, cynomolgus monkey, mouse, or rat TfR1. After a short incubation, binding of the Fab was quantified by addition of a fluorescently tagged anti-(H+L) IgG secondary antibody and measurement of fluorescence intensity at 495 nm excitation and 520 nm emission.

[11] = target: T1, recombinant human TfR1 (transferrin …); assay: kinetic analysis (Biacore), Table 7; TfR1 species not stated
[12] = target: T1, recombinant human TfR1 (transferrin …); assay: ELISA on hTfR1, unconjugated Fab, % normalized RFUs
[13] = target: T2, recombinant cynomolgus monkey (Macaca …); assay: ELISA on cTfR1, unconjugated Fab, % normalized RFUs
[14] = target: T4, recombinant rat TfR1 (rat, UniProt Q99376 89-761, limits assumed); assay: ELISA on plate-coated recombinant rat TfR1, fluorescent anti-(H+L) IgG secondary
T4 construct: Recombinant protein coated on ELISA plates
Experimental: as §1

T3 sequence (Q62351 89-763 limits assumed): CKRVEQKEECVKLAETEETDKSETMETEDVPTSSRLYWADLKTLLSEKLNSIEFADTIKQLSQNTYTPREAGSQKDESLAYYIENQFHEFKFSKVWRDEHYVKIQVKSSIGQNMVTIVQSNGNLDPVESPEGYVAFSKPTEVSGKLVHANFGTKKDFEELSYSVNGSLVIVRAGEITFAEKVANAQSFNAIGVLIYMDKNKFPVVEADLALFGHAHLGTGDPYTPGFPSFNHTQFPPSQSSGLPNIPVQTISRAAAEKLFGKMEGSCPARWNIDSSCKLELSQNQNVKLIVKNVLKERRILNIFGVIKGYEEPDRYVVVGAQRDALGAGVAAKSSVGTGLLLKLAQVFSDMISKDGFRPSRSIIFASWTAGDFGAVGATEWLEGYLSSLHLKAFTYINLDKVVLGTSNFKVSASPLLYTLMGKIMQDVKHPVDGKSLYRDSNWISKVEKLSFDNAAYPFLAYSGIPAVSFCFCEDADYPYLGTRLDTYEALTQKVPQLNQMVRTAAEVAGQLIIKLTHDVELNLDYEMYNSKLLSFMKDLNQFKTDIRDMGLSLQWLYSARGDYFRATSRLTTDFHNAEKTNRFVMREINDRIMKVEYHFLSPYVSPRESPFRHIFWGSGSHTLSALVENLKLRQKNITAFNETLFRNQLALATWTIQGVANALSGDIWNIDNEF
T4 sequence (Q99376 89-761 limits assumed): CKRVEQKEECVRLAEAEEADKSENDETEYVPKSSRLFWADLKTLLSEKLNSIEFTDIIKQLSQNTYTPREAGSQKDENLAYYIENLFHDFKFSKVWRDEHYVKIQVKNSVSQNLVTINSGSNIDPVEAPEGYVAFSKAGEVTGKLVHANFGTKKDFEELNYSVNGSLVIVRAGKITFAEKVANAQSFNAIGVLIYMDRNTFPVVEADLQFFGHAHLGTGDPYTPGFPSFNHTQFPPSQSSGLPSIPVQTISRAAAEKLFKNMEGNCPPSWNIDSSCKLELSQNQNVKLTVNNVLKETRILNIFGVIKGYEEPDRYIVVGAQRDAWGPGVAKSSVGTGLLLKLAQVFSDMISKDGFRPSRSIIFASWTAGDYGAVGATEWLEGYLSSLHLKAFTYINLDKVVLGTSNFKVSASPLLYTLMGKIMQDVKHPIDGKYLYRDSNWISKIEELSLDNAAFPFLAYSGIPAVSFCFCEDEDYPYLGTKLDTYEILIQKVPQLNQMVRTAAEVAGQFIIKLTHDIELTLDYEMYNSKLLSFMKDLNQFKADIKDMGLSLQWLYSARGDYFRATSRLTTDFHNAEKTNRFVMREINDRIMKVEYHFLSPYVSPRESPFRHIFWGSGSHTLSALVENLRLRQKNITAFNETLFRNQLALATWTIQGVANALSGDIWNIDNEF

Kd [1]: 0.768 nM
koff [1]: 0.000127 s⁻¹
kon [1]: 166000 M⁻¹ s⁻¹
Kd [2]: 5.18 nM
koff [2]: 0.000476 s⁻¹
kon [2]: 91900 M⁻¹ s⁻¹
EC50 [3]: 0.5 nM
EC50 [4]: 2.2 nM
Kd [5]: 0.341 nM
EC50 [6]: 2.1 nM
Binding affinity [7]: 0.5 nM
Binding affinity [8]: 2.2 nM
Kd [9]: 0.486 nM
binding result [10]: no binding (tested: 500 nM)
Kd [11]: 0.341 nM
koff [11]: 8.61e-05 s⁻¹
kon [11]: 252000 M⁻¹ s⁻¹
EC50 [12]: 2.1 nM
EC50 [13]: 9.9 nM
binding result [14]: no binding (tested: 500 nM)
B1: humanized anti-TfR Fab 3M12 VH4/Vκ3 (Fab, V domains shown)
VH: QVQLQESGPGLVKPSQTLSLTCTVTGYSITSGYYWNWIRQPPGKGLEWIGYITFDGANNYNPSLKNRVSISRDTSKNQFSLKLSSVTAEDTATYYCTRSSYDYDVLDYWGQGTTVTVSS
VL: DIQMTQSPSSLSASVGDRVTITCRASQDISNFLNWYQQKPGQPVKLLIYYTSRLHSGVPSRFSGSGSGTDFTLTISSLQPEDFATYYCQQGHTLPYTFGQGTKLEIKR
notes: also called 3M12 (VH4/Vk3); anti-TfR Fab 3M12 VH4/Vk3
